From patent US20160084820A1, “METHODS OF TREATING OR PREVENTING PERIODONTITIS AND DISEASES ASSOCIATED WITH PERIODONTITIS” (priority 2010, published 2016) come the findings set out here.

For data set [1], the system named is phagocytosed P. gingivalis in mouse peritoneal macrophages. Type of data set: cell-based, P. gingivalis ATCC 33277. Particulars: for promoting intracellular survival, C5a vs C5a^desArg: 24 h. The method, then:
The viability of phagocytosed P. gingivalis was monitored by an antibiotic protection-based intracellular survival assay, as previously described (Wang et al., 2007, J. Immunol., 179:2349-58). Briefly, mouse peritoneal macrophages were allowed to phagocytose P. gingivalis (MOI=10:1; 5×10^6 bacteria and 5×10^5 cells) for […] at 37° C. This was followed by washing to remove extracellular nonadherent bacteria and 1-hour treatment with antibiotics (300 μg/ml gentamicin and 200 μg/ml metronidazole) to eliminate residual or extracellular adherent bacteria. The macrophages were subsequently cultured overnight (for a total of 24 hours) or for 48 hours Immediately after, the macrophages were washed and lysed in sterile distilled water, and viable counts of internalized P. gingivalis were determined by plating serial dilutions of macrophage lysates on blood agar plates subjected to anaerobic culture.
The viability of phagocytosed P. gingivalis was monitored by an antibiotic protection-based intracellular survival assay, as previously described (Wang et al., 2007, J. Immunol., 179:2349-58)). Briefly, mouse peritoneal macrophages were allowed to phagocytose P. gingivalis (at a MOI=10:1; 5×10^6 bacteria and 5×10^5 macrophages) for 30 min at 37° C. This was followed by washing to remove extracellular nonadherent bacteria and 1-hour treatment with antibiotics (300 μg/ml gentamicin and 200 μg/ml metronidazole) to eliminate residual or extracellular adherent bacteria. The macrophages were subsequently cultured overnight for a total of 24 hours Immediately after, the macrophages were washed and lysed in sterile distilled water and viable counts of internalized P. gingivalis were determined by plating serial dilutions of macrophage lysates on blood agar plates subjected to anaerobic culture.

Data set [2] has as its system intracellular cAMP. The data set can be described thus: cAMP enzyme immunoassay in P. gingivalis-stimulated macrophages. The format is cell-based, mouse. The following applies: for elevating cAMP, C5a vs C5a^desArg: 1 h.
Data set [3] concerns nitric oxide production. The data set can be described thus: NO2− (nitric oxide) production, Griess reaction-based assay, macrophages. Particulars: for inhibiting nitric oxide, C5a vs C5a^desArg: 24 h. The format is cell-based, mouse. (In general: The Griess reaction detects nitrite, a stable product of nitric oxide.)
The subject of data set [4] is negative regulators of TLR signaling. The data set can be described thus: Expression of negative regulators of TLR signaling, quantitative real-time PCR. Type of data set: cell-based, mouse. The following applies: C5a 50 nM, 4 hours. The method, then: Gene expression in resting or activated mouse macrophages was quantified using quantitative real-time PCR. Briefly, RNA was extracted from cell lysates using the PerfectPure RNA cell kit (5 Prime, Fisher) and quantified by spectrometry at 260 and 280 nm. The RNA was reverse-transcribed using the High-Capacity cDNA Archive kit (Applied Biosystems) and quantitative real-time PCR with cDNA was performed using the ABI 7500 Fast System, according to the manufacturer's protocol (Applied Biosystems). TaqMan probes, sense primers, and antisense primers for expression of a house-keeping gene (GAPDH) or iNOS (or the genes shown in FIG. 7) were purchased from Applied Biosystems.
Supplemental experiments also examined the relative expression of negative regulators of TLR signaling in P. gingivalis-stimulated macrophages in the absence or presence of C5a. Mouse macrophages were stimulated with P. gingivalis (Pg; at a MOI=10:1) or medium control, in the presence or absence of 50 nM of C5a, and incubated for 4 hours. Quantitative real-time PCR (ABI 7500 Fast System; Applied Biosystems) was used to determine mRNA expression levels for the indicated molecules (normalized against GAPDH mRNA levels), which are shown in FIG. 7.
A general note: Quantitative PCR measures a nucleic acid by following its amplification.

Data set [5] has as its system GSK3β Ser9-phosphorylation. The experiment in a line: GSK3β Ser9 phosphorylation ELISA in macrophages. Type of data set: cell-based, mouse. Particulars: C5a 50 nM without Pg. As for the experimental part:
PKA activity in lysates of activated cells was determined using the ProFluor™ PKA assay, according to the instructions of the manufacturer (Promega) (Hajishengallis et al., 2008, PNAS USA, 105:13532-7). Phosphorylation of GSK313 on Ser9 and total GSK3β were monitored using FACE™ GSK3β ELISA kits (Active Motif).
For orientation: An ELISA detects its analyte on a solid surface through an enzyme-linked reagent.

The subject of data set [6] is mouse peritoneal macrophages. The experiment in a line: P. gingivalis phagocytosis and receptor expression by flow cytometry. Type of data set: cell-based. As for the experimental part:
First, experiments were performed to determine the effect of C5a (50 nM) or C3a (200 nM) on P. gingivalis phagocytosis by unprimed or IFN-γ-primed mouse peritoneal macrophages (FIG. 6A). The phagocytic index was calculated following a 30-min incubation using the following formula: % positive cells for fluorescently labeled P. gingivalis×MFI/100 (extracellular fluorescence was quenched prior to flow cytometry). Mouse macrophages were incubated at 37° C. for 30 min (B) or 24 hours (C) with medium, C5a (50 nM) only, or P. gingivalis (MOI=10:1) with or without C5a (50 nM). The expression levels of the indicated receptors, which coordinately mediate P. gingivalis uptake, were determined by flow cytometry after cell staining with appropriate fluorescently labeled antibodies (FIGS. 6B and 6C). The 30-min time point was examined to determine possible induced surface expression of preformed receptors from intracellular pools. […] Mouse-specific mAbs to TLR2 (clone 6C2), TLR1 (TR23), CD14 (Sa2-8), CD11b (M1/70), and CD18 (M18/2) were obtained from e-Bioscience.

For data set [7], the system named is IL-6 production. The experiment in a line: IL-6 ELISA in P. gingivalis-stimulated macrophages. The format is cell-based, mouse. Particulars: C5a 50 nM, 5 or 24 hours. As for the experimental part:
Mouse peritoneal macrophages were incubated for 5 or 24 hours at 37° C. with P. gingivalis (Pg; MOI=10:1) in the presence or absence of C5a (50 nM), and culture supernatants were assayed for IL-6 by ELISA.

Data set [8] deals with IL-12p70 production. The experiment in a line: IL-12p70 induction in IFN-gamma-primed macrophages, ELISA. Type of data set: cell-based, mouse. As for the experimental part: Induction of nitric oxide production was assessed by measuring the amount of NO2− (stable metabolite of nitric oxide) in stimulated culture supernatants using a Griess reaction-based assay kit (R&D Systems), as previously performed (Hajishengallis et al., 2008, PNAS USA, 105:13532-7). Levels of cAMP in activated cell extracts were measured using a cAMP enzyme immunoassay kit (Cayman Chemical) (Liang et al., 2007, J. Immunol., 178:4811-9). C5a-induced intracellular calcium mobilization was monitored in cells (4×10^6) loaded with 1 μM Indo 1-AM in the presence of 1 μM pluronic acid, as previously described (Ali et al., 1993, J. Biol. Chem., 268:24247-54). Calcium traces were recorded in a Perkin-Elmer fluorescence spectrometer (Model 650-19) with an excitation wavelength of 355 nm and an emission wavelength of 405 nm. Induction of cytokine production in activated cell culture supernatants or in the peritoneal fluid of infected mice was determined by ELISA using kits from eBioscience or Cell Sciences. C5a levels were measured by sandwich ELISA, employing a pair of capture and biotinylated anti-05a mAbs (BD Pharmingen), according to the manufacturer's protocol.
Whether C5a inhibits P. gingivalis-induced IL-12p70 in peritoneal macrophages was investigated. Since macrophages are generally poor producers of IL-12p70 in vitro unless primed with IFN-gamma, macrophages used in these experiments were primed with IFN-gamma (0.1 μg/ml). […] The host TLR response against P. gingivalis is predominantly mediated by TLR2, both in vitro and in vivo. Therefore, whether C5a-mediated inhibition of P. gingivalis-induced IL-12p70 could involve a C5aR-TLR2 crosstalk additionally was examined.

Data set [9] concerns mouse neutrophils. The data set can be described thus: In vitro killing of Pg and oxidative burst by mouse neutrophils. Type of data set: cell-based. The following applies: presence of C5a. The method, then:
(§1) To directly implicate neutrophils in this evasion mechanism, in vitro experiments were performed. It was shown that the ability of mouse or human neutrophils (purified from peripheral blood5 collected under IRB approval) to kill Pg was inhibited in the presence of C5a in a C5aR-dependent manner, whereas their oxidative burst response was enhanced.

Data set [10] concerns human neutrophils. The experiment in a line: In vitro killing of Pg and oxidative burst by human neutrophils. The format is cell-based. Particulars: presence of C5a. As for the experimental part:
as §1

Data set [11] relates to macrophages. The experiment in a line: Intracellular Ca2+ mobilization (Indo-1 AM), macrophages. Type of data set: cell-based, mouse. Particulars: 50 nM.
The subject of data set [12] is neutrophils. The experiment in a line: Intracellular Ca2+ mobilization (Indo-1 AM), neutrophils. The format is cell-based, mouse.
For data set [13], the system named is macrophages.
Procedure: Thioglycollate-elicited macrophages were isolated from the peritoneal cavity of wild-type or mice deficient in TLR2, TLR4, C3aR, or C5aR (The Jackson Laboratory) (Zhang et al., 2007, Blood, 110:228-36; Gajishengallis et al., 2006, Cell. Microbiol., 8:1557-70), in compliance with established federal guidelines and institutional policies. The macrophages were cultured at 37° C. and 5% CO2 in RPMI 1640 (InVitrogen) supplemented with 10% heat-inactivated FBS, 2 mM L-glutamine, 100 units/ml penicillin G, 100 μg/ml streptomycin, and 0.05 mM 2-ME.
Thioglycollate-elicited macrophages were isolated from the peritoneal cavity of wild-type or mice deficient in TLR2 or C5aR (Hajishengallis et al., 2006, Cell. Microbiol., 8:1557-70; Zhang et al., 2007, Blood, 110:228-36) in compliance with established institutional policies and federal guidelines. Both BALB/c and C57BL/6 C5aR-deficient mice were used (with their respective wild-type controls): The BALB/c mice were obtained from The Jackson Laboratory; and the C57BL/6 C5aR-deficient mice were originally provided by Dr. Craig Gerard (Harvard Medical School) and are now housed at The Jackson Laboratory. The TLR2-deficient mice were originally C57BL/6 (The Jackson Laboratory) and were backcrossed for nine generations onto a BALB/c genetic background before their use in these studies. […]

Where two headings read alike, the source gives them in different places. Some results are limits rather than exact numbers.

B1: C5a: mouse C5a anaphylatoxin, purchased from Cell Sciences or R&D Systems (protein)
chain: NLHLLRQKIEEQAAKYKHSVPKKCCYDGARVNFYETCEERVARVTIGPLCIRAFNECCTIANKIRKESPHKPVQLGR
For the molecule B1, in [1] (10 nM), the “promoting intracellular survival, C5a vs C5a^desArg” value is “stronger effects than C5a^desArg”. Also, the “intracellular survival of P. gingivalis in macrophages (viable counts of internalized bacteria)” value in data set [1] (Pg MOI=10:1, C5a 50 nM or C3a 200 nM, 24 or 48 hours post-infection) was “significantly promoted”. Moreover, the “Pg CFU with C5a in the absence of inhibitors” value in data set [1] (macrophages with Pg and C5a, 24 hours postinfection, FIG. 2D dashed line) is 13.7±2.7 [×10^4] CFU. For the same molecule, the “elevating cAMP, C5a vs C5a^desArg” value in data set [2] (10 nM) was “stronger effects than C5a^desArg”. Also, the “elevation of intracellular cAMP, C5a + P. gingivalis relative to P. gingivalis alone” value in [2] (C5a 50 nM, Pg MOI=10:1) is on record as above 3 fold. Further, the “cAMP difference AMD+C5a+Pg vs. AMD+Pg” value in data set [2] (CXCR4 blockade by AMD3100 1 μg/ml) is recorded as above 6 fold. The “cAMP response to C5a by itself” value in data set [2] (macrophages without P. gingivalis) is “failed to induce a cAMP response”. For the same molecule, the “inhibiting nitric oxide, C5a vs C5a^desArg” value in data set [3] (10 nM) was “stronger effects than C5a^desArg”. The “production of nitric oxide in P. gingivalis-stimulated macrophages” value in data set [3] (C5a 50 nM, unprimed or IFN-gamma-primed, 24 hours) is listed as “significantly inhibited”. Further, the “expression of negative regulators of TLR signaling with P. gingivalis and C5a” value in data set [4] was “no synergistic or additive effects”. In addition, in data set [5], the “Ser9-phosphorylation of GSK3β by C5a itself” value is on record as “only slightly increased”. Besides, the P. gingivalis phagocytosis entry in data set [6] (C5a 50 nM or C3a 200 nM, 30-min incubation) is on record as “not significantly affected”. The “expression of macrophage receptors CD14, TLR2, CD11b/CD18” value in [6] (C5a 50 nM, 30 min or 24 hours) was “essentially unaffected”. Further, in data set [7], the “IL-6 production in P. gingivalis-stimulated macrophages” value is reported as “up-regulation of IL-6 production”. In addition, the “inhibition of P. gingivalis-induced IL-12p70” value in data set [8] (10 nM) was “already effective”. In addition, the “P. gingivalis-induced IL-12p70 production” value in data set [8] (C5a 50 nM, 24 h) is reported as “significantly inhibited”. Further, the “LPS-induced IL-12p70 production” value in data set [8] (C5a 50 nM, E. coli LPS 0.1 μg/ml, 24 h) is given as “significantly inhibited”. The “ability of neutrophils to kill Pg” value in [9] and in data set [10] was “inhibited” throughout. The oxidative burst response entry in [9] and in data set [10] was “enhanced” throughout. In addition, the figures for the “intracellular Ca^2+ mobilization” value in data set [11] and in [12] were “comparable intracellular Ca^2+ mobilization” and “only C5a was active”, respectively. For the same molecule, in data set [13], the “cell viability compared to medium-only treatments” value is given as “None of the experimental treatments, including treatments with C5a up to 100 nM, affected cell viability”.

B2: C5a^desArg: desarginated form of mouse C5a (protein)
chain: NLHLLRQKIEEQAAKYKHSVPKKCCYDGARVNFYETCEERVARVTIGPLCIRAFNECCTIANKIRKESPHKPVQLG
For B2, the “promoting intracellular survival, C5a vs C5a^desArg” value in [1] (50 nM) is “no significant differences”. Further, in data set [2] (50 nM), the “elevating cAMP, C5a vs C5a^desArg” value is recorded as “no significant differences”. Also, the “inhibiting nitric oxide, C5a vs C5a^desArg” value in data set [3] (50 nM) is “no significant differences”. Also, the “inhibition of P. gingivalis-induced IL-12p70” value in data set [8] (10 nM) was “not”; in data set [8] (50 nM) it was “significant (p<0.05) inhibition”. In addition, the “intracellular Ca^2+ mobilization” value is given as “comparable intracellular Ca^2+ mobilization” in data set [11] and “only C5a was active” in data set [12].
